# In article PMC6695192:
# Legend:
# [1] = molecular target: EGFP-fused ACBD3 GOLD domain (human) (UniProt Q9H3P7); test: MST; EGFP-fused GOLD domain at a constant 150 nM, GB1-fused 3A cytoplasmic domain in a series of concentrations; 30 mM Tris pH 7.4, 150 mM NaCl, 3 mM β-mercaptoethanol; Monolith NT.115
# [2] = molecular target: GB1-fused cytoplasmic domain of the enterovirus D68 3A protein, wild type (enterovirus D68); test: SEC
# [3] = molecular target: GOLD-EVD68 3A fusion protein, wild type (human | enterovirus D68) (UniProt Q9H3P7); test: […]; 30 mM Tris pH 7.4, 150 mM NaCl, 1 mM TCEP; […]
# [4] = molecular target: GOLD-EVD68 3A fusion protein, wild type (human | enterovirus D68) (UniProt Q9H3P7); test: SEC
# [5] = molecular target: GOLD-3A fusion protein LVVY mutant N-terminally fused to mAmetrine or mPlum (UniProt Q9H3P7); test: FRET by flow cytometry in HeLa cells (self-association of mAmetrine- and mPlum-fused GOLD-3A); conditions: mean FRET signal at a fixed acceptor signal (dashed line in f, acceptor fluorescence 100 a.u.); three independent experiments; p-value = 0.004; parent: est. …; read off a plot
substance,measurement,setting,value
GB1-fused cytoplasmic domain of the enterovirus A71 3A protein (domain or fragment),Kd,[1],15000 nM
"GB1-fused cytoplasmic domain of the enterovirus D68 3A protein, wild type (domain or fragment)",stoichiometry N,[2],2
same,Kd,[1],1000 nM
GB1-fused cytoplasmic domain of the rhinovirus B14 3A protein (domain or fragment),Kd,[1],1000 nM
"GOLD-EVD68 3A fusion protein, wild type (from UniProt Q9H3P7)",stoichiometry N,[3],2
same,stoichiometry N,[4],2
wild-type GOLD-3A fusion protein N-terminally fused to mAmetrine or mPlum (from UniProt Q9H3P7) L25A; V29A; V34A; Y37A,response,[5],3.9 a.u.
